Assay: yeast display, Sf9 membrane polyspecificity reagent, FACS + sequencing; frameworks hold sequencing errors
Method in brief: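 Using colony PCR, genes from sorted yeast display clones were amplified, then sequenced on MiSeq at 2 × 250 and filtered by CDR length. The clones had been stained with 10% biotinylated, detergent-solubilized Sf9 membrane reagent for 1 hour at 4 °C and sorted by FACS into low and high (top ~1%) gates on anti-HA and streptavidin fluorescence. Polyreactivity labels come from the gate of origin.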
With “QVQLVESGVGLVQAGGSLRLSCAATGRIFDLYAMGWYRQAPGKEREFVAAISGRGGSTYYADSVKGRFTISRDNAKNTVYLEMNSLKPEDTAVYYCNAKRSLYGRYGYWGQGSQVTVSS” the “polyreactivity (PSR sort gate)” value was “high polyreactivity”.
With “QVQLVESGVGLVQAGGSLRLSCAPSGRIFIYYAMGWYRQAPGKERELVATITASGDSTYYADSVKGRFTISRDNAKNTVYFQMNSLKPEDTAVYYCAADDGDYYEVDYWGQGTQVTVSS” the “polyreactivity (PSR sort gate)” value was “low polyreactivity”.
In the case of “QVQLVESGVGLVQAGGSLRLSCASSGILVYNAMAWYRQAPGKERELVAAISARGGRTYYADSVKGRFTISRDNAKNTVYLQMNSLKPEDTAVYYCATLETTGVNYWGQGTQVTVSS”, the “polyreactivity (PSR sort gate)” value is reported as “high polyreactivity”.
In the case of “QVQLVESGVGLVQAGGSLRLSCASSGLTFNYYAIGWYRQAPGKERELVAAISSDGRTDYADSVKGRFTISRDNAKNTVYLQMNSLKPEDTAFYSCAVEYQSPDDYWGQGTQVTVSS”, the “polyreactivity (PSR sort gate)” value is reported as “low polyreactivity”.
With “QVQLVESGVGLVQAGGSLRLSCASSGSIFAYNTMGWYRQAPGKEREFVAAISWLGGSTYYADSVKGRFTISRDNAKNTVYLQMNSLKPEDTAVYYCNARYRTTFYTRRYDYWGQGTQVTVSS” the “polyreactivity (PSR sort gate)” value was “low polyreactivity”.
In the case of “QVQLVESGVGLVQAGGSLRLSCASSGSTCGYYTMGWYRQAPGKERELVAAITKTGGGTYYADSVKGRFTISRDNAKNTDYLQMNSLKPEDTAVYYCAAYSRFTSDYWGQGTQVTVSS”, the “polyreactivity (PSR sort gate)” value is reported as “high polyreactivity”.
With “QVQLVESGVGLVQAGGSLSLSCAASGSTFTRYAMGWYRQAPGKERELVASISRSGNTYYADSVKGRFTISRDNAKNTVYLQMNSLKPEDSAVYYCAAKRKSYYSYNFDYWGQGTQVTVSS” the “polyreactivity (PSR sort gate)” value was “high polyreactivity”.
In the case of “QVQLVESGVGLVQAGGSLSLSCAPSGSTFTSYAMGWYRQAPGKEMELVAAITSRRGTYYADSVKGRFTISRDNAKNTVYLEMTSLKPEVTAVYYCAARAPYKKYPYVKWYDYWGQGTQVTVSS”, the “polyreactivity (PSR sort gate)” value is reported as “high polyreactivity”.
With “QVQLVESGVGLVQAGGTLRLSGAASGLIFEYYAMGWYRQPPGKETELVAAITTSGGSTYYADSVKGRFTISRDIAKNTVYLQMNSLKPEDTAVYDCAAVGVRSRYYGYDYWGQGTLVTVSS” the “polyreactivity (PSR sort gate)” value was “high polyreactivity”.
In the case of “QVQLVESGVGLVQAGRNLRLSCAASGIIFYLNAMGWYRQAPGKERELVAAISNGTSTNYADSVKGRFTISRDNAKNTVYLQMNSLKPEDTAVYYCAADDLRYNSRSSNYRGDSWGQGTQVTVSS”, the “polyreactivity (PSR sort gate)” value is reported as “low polyreactivity”.
With “QVQLVESGVGLVQARGSLRLSCAASGYIFTIYAMGWYRHAPGKERELVAAITWSGATTYYADSVKGRFTISRDNAKNTVYLQMNILKPEDTAVYYCNADYWHYYEDYDSWGQGTQVTVSS” the “polyreactivity (PSR sort gate)” value was “low polyreactivity”.
In the case of “QVQLVESGVGLVQARGSLRLSCASSGSIFLVYAMGWYRQAPGKESELVAAISRSGRTYADSVKGRFTISRDNAKNTVYLQMNSLKPVDTAVYYCAAVTKRRFEGDYWGQGTQVTVSS”, the “polyreactivity (PSR sort gate)” value is reported as “high polyreactivity”.
With “QVQLVESGVGLVQARGSLRLSSAASGITLPKYAMGWYRQEHGKERELVAAISRRGGITYYADSVKGRFTISRDNAKNTVYVQMNSLKPEDTAVYYCAADRTDTRGFDYWGQGTQVTVSS” the “polyreactivity (PSR sort gate)” value was “high polyreactivity”.
With “QVQLVESGVRLVQSGGSLRLSCASSGFTIWRYAMGWYRQAPGKERELVAAISRSGTRTYYADSVKGRFTISRDNAKNTVYLQMNSLKPEDTAVYYCAADGLSLAYEHDYWGQGTQVTVSS” the “polyreactivity (PSR sort gate)” value was “high polyreactivity”.
With “QVQLVESIGGLVQAGGSLRLSCAASGSIFQPYAMRWYRQAPGKERELVAAITTSGGRTYYADSVKGRFTMSRDNAKNTVYLQMNSLKPEDTAVYYCAADWGIGDYDYWGQGTQVTVSS” the “polyreactivity (PSR sort gate)” value was “high polyreactivity”.
For “QVQLVESPGGLVKAGGSLRLSCDASGRTFYGYAMGWYRQPPGKEREFVAAITWSGSSTNYADSVKGRFTISRDNATNSVYLQMNSLKPDDTAVYYCAASYYAPYWSMDNWGQGTQETVSS”, the “polyreactivity (PSR sort gate)” value was “high polyreactivity”.
In the case of “QVQLVESRAGLVQAGGSLRLSCAASGSTFGYYTMGWYRQAPGKERELVAAITWSGGSSYYADSVKGRFTISRDNAKKTVYLEMNSLKAEDTAVYFGAADDYWTPFGYWGQGTQVTVSA”, the “polyreactivity (PSR sort gate)” value is reported as “low polyreactivity”.
In the case of “QVQLVESRGALVQAGGSLRLSCAASGYIFRAYAMGWYRPAPGKERELVAAISSRGGSTYYADSVKGRFTISRDNAKNTVYLQMNSLKPEDTAVYYCAAAYRQPYIGYGYWGQGTQVTVSS”, the “polyreactivity (PSR sort gate)” value is reported as “high polyreactivity”.
With “QVQLVESRGALVQAGGSLRLSCAASGYIFYSNAMRWYRQEPGKERELVAAITSGRGSTYYADSVKGRFTISRDNAKNTVYLQMNSLIPEDTAVYYCDVSIGRYPYRYGYWGQGTQVTVSS” the “polyreactivity (PSR sort gate)” value was “high polyreactivity”.
For “QVQLVESRGGLVPAGGSLRLSCAASGITFYHYAIGWYRQAPVKERELVAAISRSGGSTSYADSVKGRLTISRDNAKITVYLEMNSLIPEDTAVYYCAARLVRESEPLGYWGQGTQVTVSS”, the “polyreactivity (PSR sort gate)” value was “high polyreactivity”.
In the case of “QVQLVESRGGLVQAGCSLRLRCAASGFIFSWYAMGWYRHAPGKERELDAAISASGTSTYYADSVKGRFTISRDNAKNTVYLQMNSLKPEDTAVYYCAAEFVTEYLYGFVYEYDSWGQGTQVTVSS”, the “polyreactivity (PSR sort gate)” value is reported as “low polyreactivity”.
For “QVQLVESRGGLVQAGGRLRLSCAASGIIFPRNAMGWYRQAPGKERELVAAITNTGSTKYADSVKGRFTISRDNEKNTVYLHMNSLKPEDTAVYFCAKELCSVPSPSLYDYWGQGTQVTVSS”, the “polyreactivity (PSR sort gate)” value was “low polyreactivity”.
For “QVQLVESRGGLVQAGGSLRLSCAASGFIFWRYAMGWYRQAPGKERELVASITYSGGRTYYADSVKGRFTISRDNAKNTVYLQMNILKPEDTAVYYCATARYRYHYYSWGQGTQVTVSS”, the “polyreactivity (PSR sort gate)” value was “high polyreactivity”.
With “QVQLVESRGGLVQAGGSLRLSCAASGFTFYSNAMGWYRQAPGKERELVAAIAKRGGSTYYADSVKGRFTISRDNAKNTVYLQMISLKPEDTAVYYCNKDYYARKYDYWGQGTLVTVSS” the “polyreactivity (PSR sort gate)” value was “high polyreactivity”.
In the case of “QVQLVESRGGLVQAGGSLRLSCAASGITFDVYDMGWYRQAPGKERELVASINSGGGITYYADSVKGRFTISRDNAKNTVYLQMNSLKPEDTAVFYCADDTWGSSWYDLFRETSDYWGQVTQVTVSS”, the “polyreactivity (PSR sort gate)” value is reported as “low polyreactivity”.
In the case of “QVQLVESRGGLVQAGGSLRLSCAASGITFYTYTMGWYRQAPGKERELVAVISASGARTYYADSVKGRFTISRDNAKNTVYLQMNSLKPEDTAVYYFAARSFYISPWRFDYWGQGTQVTVSS”, the “polyreactivity (PSR sort gate)” value is reported as “high polyreactivity”.
In the case of “QVQLVESRGGLVQAGGSLRLSCAASGITSPYAMGWYRQAPGKERELVAAISWSGSSTYYADSVKGRFTISRDNAKNTVYLQMNSLKPQDTAVYYCNTVGTRQPMDYWGQGTQVTVSS”, the “polyreactivity (PSR sort gate)” value is reported as “high polyreactivity”.
In the case of “QVQLVESRGGLVQAGGSLRLSCAASGLIFWFNTMGWYRQAPGTERELVAAITSGGGSTYYADSVKGRFTISRDIAKNTVYLQKNSLKPEDTAVYYCNAGAGRWRARQWHDYWGQGTQVTVSS”, the “polyreactivity (PSR sort gate)” value is reported as “low polyreactivity”.
For “QVQLVESRGGLVQAGGSLRLSCAASGRIFDVYAMVWYRQAPGKERELVAAITWSGTSTYYADSVKGRFTISRDNAKNTVYVQMNSLKPEDTAVYYCAAEVAYTDTEYFWYYYWGQGTQVTVSS”, the “polyreactivity (PSR sort gate)” value was “high polyreactivity”.
For “QVQLVESRGGLVQAGGSLRLSCAASGRIFNVYAMGWYRQAPGKERELVAGISGSGGRTYYADSVKGRFTISRDNAKNTVYLQMNSLKPEDTAVYYCNTVRHYSSWGQGTQVTVSS”, the “polyreactivity (PSR sort gate)” value was “high polyreactivity”.
For “QVQLVESRGGLVQAGGSLRLSCAASGRIFYVNAMGGYRQAPGKERELVAAIDVSGGRTYYADSVKGRFTISRDNAKNTVYLQMNSLKPEDTAVYYCAALKYRWTPYYPYDYWGQGTQVTVSS”, the “polyreactivity (PSR sort gate)” value was “low polyreactivity”.
In the case of “QVQLVESRGGLVQAGGSLRLSCAASGRTFAVYALGWYRQAPGKEWELVAAITLGASRTYYADSVKGRFTISRDNAKNTVYLQMNSLKPEDTAVYSCNAVGRRNVDSSLNDYWGQGTQVTVSS”, the “polyreactivity (PSR sort gate)” value is reported as “low polyreactivity”.
With “QVQLVESRGGLVQAGGSLRLSCAASGRTFDGYVMGWYRQAPGKERELVAAISWGGSYTYYADSVKGRFTISRDNAKNTVYLQMNSLKPEDTAVYYCAKDTVPNVRDYWGQGTQVTVSS” the “polyreactivity (PSR sort gate)” value was “low polyreactivity”.
With “QVQLVESRGGLVQAGGSLRLSCAASGRTFGIYTMGWYRQAPGKERKLVAAISKRGSSTYYADSVKGRFTISRDNANNTVYLQMNSLKPEDTAVYYCAATRRYRYNWGQGSQVTVSS” the “polyreactivity (PSR sort gate)” value was “high polyreactivity”.
In the case of “QVQLVESRGGLVQAGGSLRLSCAASGRTFGRNTMGWYRQAPGKERELVAAISISGTSTYYADSVKGRFTISRDNAKNTVSLQMNSLKPEDTAVYDCAARYIRGSYGMGYWGQGTQVTVSS”, the “polyreactivity (PSR sort gate)” value is reported as “high polyreactivity”.
For “QVQLVESRGGLVQAGGSLRLSCAASGSIFYRNVMGWYTQAPRKEREWVAAISGRGGSTYYADSVKGRFTISRDNAKNTVYLQFTSLKPEDTAVYYCATELTYRHGYWGQGTQVTVSS”, the “polyreactivity (PSR sort gate)” value was “high polyreactivity”.
With “QVQLVESRGGLVQAGGSLRLSCAASGSTFGQYPMGSYRQEPGKERELVATITSPGSTNYADSVKGRFTISRDNAKNTVYFQMNSLKPEDSAVYYCNAVTGYWDGTEARQPYDYWGQGTQVTVSS” the “polyreactivity (PSR sort gate)” value was “low polyreactivity”.
In the case of “QVQLVESRGGLVQAGGSLRLSCAASGSTFRTNTMGWSRQAPGKEREVVADISWSGGSTDYADSVKGRFTISRDNAKNTVYLQMNSLKPEDTAVYFCAKDGAFWTYYSWYDYWGQGTQVTVSS”, the “polyreactivity (PSR sort gate)” value is reported as “low polyreactivity”.
In the case of “QVQLVESRGGLVQAGGSLRLSCAASGSTFTYNAMGWYRQAPGKERELVASINSGGSTYYADSVKGRFTISRDNAKNNFYLQMNSLKPEDTAVYYCAKDLHLDSYASDYWGQGTQVTVSS”, the “polyreactivity (PSR sort gate)” value is reported as “low polyreactivity”.
In the case of “QVQLVESRGGLVQAGGSLRLSCAASGSTRGSNAMGRYRQAPGKEMELVAAITWSGGTTYYADSVKGRFTISRDNAKNTVYLQMHSLKPEDTSVYYCATGQSVIYRYEYWGQGTQVTVSS”, the “polyreactivity (PSR sort gate)” value is reported as “low polyreactivity”.
For “QVQLVESRGGLVQAGGSLRLSCAATGSIFNNYDMGWYRQAPGKERELVADISRGGDTNYADSVKGRFTISRDNAKYTVYLQMTSLNPVDTAVYYCNATYWILDSPWRRETFDYWRQGTQVTVSS”, the “polyreactivity (PSR sort gate)” value was “low polyreactivity”.
For “QVQLVESRGGLVQAGGSLRLSCPASGFTFVNYAMGWYRQAPGKERELVAAIRRSGSRTYYADSVKGRFTISRDNAKNTVYLQMNSLKPEVTAVYYCNAPVVYFWPLNFDYWGQGTQVTVSS”, the “polyreactivity (PSR sort gate)” value was “low polyreactivity”.
With “QVQLVESRGGLVQAGGSLRLSCPDSGSNLLSYAMGWYRQAPGKERELVAAITTRDGSTYYADSVKGRFTISRDNAKYTVYLQMTSLKPEDTAVYYCNVDARSSYDYWGQGTQVTVSS” the “polyreactivity (PSR sort gate)” value was “low polyreactivity”.

Reference: the nanobody polyreactivity screen of Harvey et al. (2022)
